Measured values taken from the supplement of paper PMC10567573.

B1: C2orf65 (parent)
chain: QLDWDELETNQQHFHALCHSLLVS
B2: SLC19A2 (parent)
chain: FHHIPSTCQRVNGIKVQNGGIVTD
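Further: lentivirally expressed fusions sorted by FACS into six bins by GFP to DsRed ratio, PSI derived from sequencing read proportions per bin multiplied by bin number.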

Variants of: B1
Test: protein stability index of a GFP-peptide fusion (GPS, HEK-293T) (PSI 1-6); higher = more stable
Conditions: c terminus: a fixed tail appended
For S24W, the protein stability index was 1.38.
Work on S24T yielded a protein stability index of 1.89.
S24Y showed a protein stability index of 2.54.
Work on S24R yielded a protein stability index of 2.1.
In the case of S24V, the protein stability index is reported as 1.56.

Variants of: B2
Test: as above
Conditions: c terminus: a fixed tail appended
H3L showed a protein stability index of 1.96.
H3K gave a protein stability index of 2.79.
For H3M, the protein stability index was 2.8.
H3A gave a protein stability index of 2.22.
Work on H3Y yielded a protein stability index of 2.11.
Variant H3C has a protein stability index of 1.92.
Variant H3F has a protein stability index of 1.39.
With H3S the protein stability index was 1.33.
In the case of H3N, the protein stability index is reported as 2.25.
H3T showed a protein stability index of 2.06.
H3W gave a protein stability index of 2.18.
Variant H3I has a protein stability index of 1.59.
H3R showed a protein stability index of 2.53.
H3Q showed a protein stability index of 1.71.
Variant H3V has a protein stability index of 3.16.
In the case of H3G, the protein stability index is reported as 2.31.
Work on H3E yielded a protein stability index of 2.53.
H3P showed a protein stability index of 2.03.
With H3D the protein stability index was 3.
Variant T7I has a protein stability index of 1.45.
In the case of T7V, the protein stability index is reported as 2.
For T7R, the protein stability index was 1.77.
For T7H, the protein stability index was 2.3.
In the case of T7C, the protein stability index is reported as 2.21.
In the case of T7D, the protein stability index is reported as 2.58.
Variant T7Q has a protein stability index of 1.83.
In the case of T7S, the protein stability index is reported as 2.31.
With T7Y the protein stability index was 1.91.
T7M showed a protein stability index of 2.03.
With T7P the protein stability index was 1.91.
With T7E the protein stability index was 2.32.
In the case of T7G, the protein stability index is reported as 1.57.
In the case of T7A, the protein stability index is reported as 1.39.
Work on T7L yielded a protein stability index of 2.59.
T7F gave a protein stability index of 3.29.
In the case of T7N, the protein stability index is reported as 2.42.
For T7K, the protein stability index was 2.23.
For S6I, the protein stability index was 1.71.
Variant S6Q has a protein stability index of 2.32.
Work on S6V yielded a protein stability index of 2.07.
With S6C the protein stability index was 2.27.
With S6F the protein stability index was 2.69.
Variant S6M has a protein stability index of 1.92.
Variant S6Y has a protein stability index of 2.01.
Work on S6G yielded a protein stability index of 1.93.
Variant S6A has a protein stability index of 2.17.
Work on S6N yielded a protein stability index of 1.6.
S6D gave a protein stability index of 2.28.
In the case of S6E, the protein stability index is reported as 2.22.
With S6T the protein stability index was 1.6.
Work on S6W yielded a protein stability index of 3.58.
For S6H, the protein stability index was 2.02.
S6P showed a protein stability index of 1.82.
S6K showed a protein stability index of 1.86.
Variant S6R has a protein stability index of 1.9.
In the case of S6L, the protein stability index is reported as 2.36.
F1I showed a protein stability index of 3.46.
Variant F1T has a protein stability index of 3.66.
Work on F1R yielded a protein stability index of 3.64.
In the case of F1M, the protein stability index is reported as 3.33.
F1C gave a protein stability index of 3.84.
In the case of F1Y, the protein stability index is reported as 2.5.
Variant F1S has a protein stability index of 3.48.
In the case of F1G, the protein stability index is reported as 3.78.
Work on F1E yielded a protein stability index of 4.27.
With F1A the protein stability index was 3.95.
Variant F1H has a protein stability index of 3.53.
For F1D, the protein stability index was 4.42.
Variant F1W has a protein stability index of 1.85.
Work on F1V yielded a protein stability index of 4.14.
Variant F1L has a protein stability index of 2.81.
Work on F1Q yielded a protein stability index of 3.71.
Variant F1P has a protein stability index of 3.84.
In the case of F1N, the protein stability index is reported as 3.25.
F1K showed a protein stability index of 2.78.
For C8R, the protein stability index was 3.48.
Variant C8N has a protein stability index of 2.69.
C8S gave a protein stability index of 2.27.
Work on C8M yielded a protein stability index of 2.39.
C8W gave a protein stability index of 1.93.
With C8G the protein stability index was 2.07.
C8A gave a protein stability index of 2.36.
Variant C8Y has a protein stability index of 1.86.
With C8P the protein stability index was 1.94.
For C8I, the protein stability index was 1.99.
C8T gave a protein stability index of 2.84.
C8K showed a protein stability index of 1.83.
With C8V the protein stability index was 2.3.
Work on C8E yielded a protein stability index of 2.18.
For C8H, the protein stability index was 2.13.
With C8L the protein stability index was 2.3.
With C8Q the protein stability index was 1.97.
With C8F the protein stability index was 1.97.
In the case of C8D, the protein stability index is reported as 2.38.
With H2K the protein stability index was 2.52.
Variant H2E has a protein stability index of 3.65.
For H2G, the protein stability index was 3.01.
Variant H2W has a protein stability index of 3.
In the case of H2R, the protein stability index is reported as 2.61.
Variant H2V has a protein stability index of 2.35.
With H2F the protein stability index was 2.03.
Work on H2S yielded a protein stability index of 3.17.
H2C gave a protein stability index of 2.28.
For H2N, the protein stability index was 3.73.
In the case of H2P, the protein stability index is reported as 3.26.
With H2L the protein stability index was 2.21.
For H2D, the protein stability index was 3.31.
Variant H2A has a protein stability index of 2.73.
For H2T, the protein stability index was 2.4.
For H2Y, the protein stability index was 1.85.
With H2I the protein stability index was 2.04.
With H2Q the protein stability index was 2.83.
In the case of H2M, the protein stability index is reported as 2.47.
I4S gave a protein stability index of 3.05.
I4T showed a protein stability index of 2.
In the case of I4A, the protein stability index is reported as 2.11.
With I4V the protein stability index was 1.67.
With I4F the protein stability index was 3.14.
I4H gave a protein stability index of 1.85.
Work on I4E yielded a protein stability index of 2.77.
I4M gave a protein stability index of 2.01.
Work on I4R yielded a protein stability index of 2.02.
I4L gave a protein stability index of 2.37.
For I4D, the protein stability index was 2.91.
Work on I4P yielded a protein stability index of 2.37.
Work on I4G yielded a protein stability index of 2.48.
For I4K, the protein stability index was 1.94.
In the case of I4C, the protein stability index is reported as 1.67.
Variant I4Q has a protein stability index of 2.1.
In the case of I4Y, the protein stability index is reported as 2.67.
Variant I4N has a protein stability index of 2.07.
In the case of P5C, the protein stability index is reported as 1.86.
P5M showed a protein stability index of 2.23.
For P5H, the protein stability index was 1.79.
In the case of P5Q, the protein stability index is reported as 1.89.
P5D gave a protein stability index of 2.71.
Work on P5Y yielded a protein stability index of 2.33.
Work on P5A yielded a protein stability index of 1.97.
Variant P5T has a protein stability index of 2.67.
For P5G, the protein stability index was 2.12.
P5E showed a protein stability index of 2.83.
For P5N, the protein stability index was 2.11.
P5I gave a protein stability index of 1.97.
Work on P5V yielded a protein stability index of 1.91.
Work on P5S yielded a protein stability index of 3.55.
For P5W, the protein stability index was 2.91.
With P5L the protein stability index was 1.86.
In the case of P5R, the protein stability index is reported as 1.58.
P5K showed a protein stability index of 2.61.
Work on Q9G yielded a protein stability index of 1.68.
For Q9P, the protein stability index was 1.81.
Q9C showed a protein stability index of 2.13.
Q9F gave a protein stability index of 2.35.
Work on Q9E yielded a protein stability index of 2.29.
Q9K gave a protein stability index of 1.55.
Work on Q9H yielded a protein stability index of 1.78.
Q9L gave a protein stability index of 2.92.
With Q9A the protein stability index was 1.46.
Q9M gave a protein stability index of 2.27.
Q9N showed a protein stability index of 2.08.
With Q9I the protein stability index was 1.65.
In the case of Q9D, the protein stability index is reported as 1.8.
